Test results from patent US7713943B2, “Further use of protein kinase N beta” (Silence Therapeutics Aktiengesellschaft (AG), priority 2002, dated 2010).
Residue numbers refer to the chain shown, from its start. Entries after “also recorded” stand apart in the source; their conditions may differ.

B1: Full length wt: full length wildtype PKNbeta molecule (889 amino acids) (protein)
chain: MEEGAPRQPGPSQWPPEDEKEVIRRAIQKELKIKEGVENLRRVATDRRHLGHVQQLLRSSNRRLEQLHGELRELHARILLPGPGPGPAEPVASGPRPWAEQLRARHLEALRRQLHVELKVKQGAENMTHTCASGTPKERKLLAAAQQMLRDSQLKVALLRMKISSLEASGSPEPGPELLAEELQHRLHVEAAVAEGAKNVVKLLSSRRTQDRKALAEAQAQLQESSQKLDLLRLALEQLLEQLPPAHPLRSRVTRELRAAVPGYPQPSGTPVKPTALTGTLQVRLLGCEQLLTAVPGRSPAAALASSPSEGWLRTKAKHQRGRGELASEVLAVLKVDNRVVGQTGWGQVAEQSWDQTFVIPLERARELEIGVHWRDWRQLCGVAFLRLEDFLDNACHQLSLSLVPQGLLFAQVTFCDPVIERRPRLQRQERIFSKRRGQDFLRRSQMNLGMAAWGRLVMNLLPPCSSPSTISPPKGCPRTPTTLREASDPATPSNFLPKKTPLGEEMTPPPKPPRLYLPQEPTSEETPRTKRPHMEPRTRRGPSPPASPTRKPPRLQDFRCLAVLGRGHFGKVLLVQFKGTGKYYAIKALKKQEVLSRDEIESLYCEKRILEAVGCTGHPFLLSLLVCFQTSSHARFVTEFVPGGDLMMQIHEDVFPEPQARFYVACVVLGLQFLHEKKIIYRDLKLDNLLLDAQGFLKIADFGLCKEGIGFGDRTSTFCGTPEFLAPEVLTQEAYTQAVDWWALGVLLYEMLVGECPFPGDTEEEVFDCIVNMDAPYPGFLSVQGLEFIQKLLQKCPEKRLGAGEQDAEEIKVQPFFRTTNWQALLARTIQPPFVPTLCGPADLRYFEGEFTGLPPALTPPAPHSLLTARQQAAFRDFDFVSERFLEP
B2: full length KE: full length protein kinase N beta with kinase defective KE mutation at position 588 (protein)
chain: B1 chain with K588E
B3: full length TA: full length protein kinase N beta with TA mutation at amino acid 718 (protein)
chain: B1 chain with T718A
B4: ΔN comprising amino acids 288-889: protein kinase N beta derivative comprising amino acids 288-889 (protein, UniProt Q6P5Z2 288-889, looked up, fragment)
chain: CEQLLTAVPGRSPAAALASSPSEGWLRTKAKHQRGRGELASEVLAVLKVDNRVVGQTGWGQVAEQSWDQTFVIPLERARELEIGVHWRDWRQLCGVAFLRLEDFLDNACHQLSLSLVPQGLLFAQVTFCDPVIERRPRLQRQERIFSKRRGQDFLRASQMNLGMAAWGRLVMNLLPPCSSPSTISPPKGCPRTPTTLREASDPATPSNFLPKKTPLGEEMTPPPKPPRLYLPQEPTSEETPRTKRPHMEPRTRRGPSPPASPTRKPPRLQDFRCLAVLGRGHFGKVLLVQFKGTGKYYAIKALKKQEVLSRDEIESLYCEKRILEAVGCTGHPFLLSLLACFQTSSHACFVTEFVPGGDLMMQIHEDVFPEPQARFYVACVVLGLQFLHEKKIIYRDLKLDNLLLDAQGFLKIADFGLCKEGIGFGDRTSTFCGTPEFLAPEVLTQEAYTRAVDWWGLGVLLYEMLVGECPFPGDTEEEVFDCIVNMDAPYPGFLSVQGLEFIQKLLQKCPEKRLGAGEQDAEEIKVQPFFRTTNWQALLARTIQPPFVPTLCGPADLRYFEGEFTGLPPALTPPAPHSLLTARQQAAFRDFDFVSERFLEP

Columns and labels:
[1] = test system: GST-GSK3 fusion protein; assay: Non-radioactive in vitro kinase assay, anti-phospho GSK3alpha Western blot; assay type: biochemical; conditions: immune precipitates, 200 μM rATP, FIG. 11A
Procedure: The second half of the immune precipitates was incubated with 1 μg GST-GSK3 fusion protein (Cell Signaling Technology) as a phosphorylation substrate in the presence of 200 μM rATP. The reaction mixture was subsequently analyzed by 8-16% gradient SDS-PAGE and Western blotting using the anti-phospho GSK3alpha antibody (Cell Signaling Technology) (FIG. 11A).
The specificity of the in vitro phosphorylation reactions was controlled by analyzing kinase defective variants (e.g. containing mutations in the ATP binding site, see above) in parallel to active protein.
In a first step, the suitability of a non-radioactive screening formate was determined, whereby the various protein kinase N beta derivatives as already discussed in connection with example 10, were used for phosphorylating a suitable substrate. Such substrate may, for example, be MBP or a GSK3 peptide which is typically immobilised on a suitable carrier such as agarose- or sepharose beads or on plastic surfaces. In the present case and as depicted in FIG. 11A, the substrate is a GSK3-derived peptide fused to paramyosin. […] The phosphorylated substrate in the present case was detected by anti-phospho GSK3 alpha antibody (mentioned above).

[2] = test system: MPB (myelin basic protein); assay: In vitro kinase activity of protein kinase N beta derivatives, MPB/MBP phosphorylation; assay type: biochemical; design: key to Activity: +: active; −: inactive; !: no “hyper activation” was observed as one might have expected from comparable mutations in other kinases (Morgan and Debond, 1994); conditions: for phosphorylation of MBP, 32P incorporation: immune precipitates, gamma 32P-ATP, autoradiography, FIG. 11B
Procedure: The respective fragments were transiently epressed in HeLa cells. Their relative expression was determined by Western-blot analysis of Hela cell extracts using an anti-PKNbeta antibody.
MPB is myelin basic protein which is a standard in vitro phosphorylation substrate.
As may be taken from FIG. 9A apart from the full-length protein kinase N beta only the kinase domain in its otherwise wildtype form is active in phosphorylating MPB.
The PKNbeta-derived molecules were immune-precipitated from the cell extracts shown in FIG. 10 by using anti-tag antibodies. The immune precipitates were washed as described (Klippel et al., 1996) and divided in two halfs. One half was incubated with 5 μg MBP (UBI) as a phosphorylation substrate, 4 mM MgCl2 and gamma ^32P-ATP in a buffered solution for 10 min at room temperature. In addition, phosphatase inhibitors and inhibitors against unspecifically acting kinases were added as in Klippel et al., 1998. Incorporation of radioactive phosphate was detected by autoradiography after separating the reaction products by 16% SDS-PAGE (FIG. 11B).

Molecule | phosphorylation of GSK3-derived substrate ([1]; listed as full length wildtype protein kinase N beta) | phosphorylation of MBP, 32P incorporation [2] | phosphorylating MPB (FIG. 9A) ([2]; transient overexpression in HeLa cells) | phosphorylation of GSK3-derived substrate [1] | Activity ([2]; transient overexpression in HeLa cells, MPB substrate, FIG. 9)
B1 | suitable to phosphorylate the substrate; also recorded: show activity | show activity | active | – | –
B2 | – | background activity of unspecific kinases | – | no | –
B3 | – | background activity of unspecific kinases | – | no | –
B4 | – | – | – | – | −*
